Laboratory results as given in patent publication US20140357577A1, “HIV Membrane Fusion Inhibitors” (priority 2011, published 2014).
Starred links: 1 amine or outer side, 2 acyl side, 3 side chain; linkers in the order of their positions; H or OH if unused. Positions of bridges follow the written chain, without caps; N, C: chain ends. Non-standard residues stand in square brackets, D forms with d. *: point of attachment. pXylylene = c1cc(C[*:2])ccc1C[*:1]; Palmitoyl = CCCCCCCCCCCCCCCC(=O)*; Suc = O=C(CCC(=O)[*:2])[*:1]; Abu = CC[C@H](N)C(=O)O; Pentanoyl = CCCCC(=O)*; B1 = not defined here

B1: peptide 52 (peptide)
peptide: Pentanoyl-ENYLALIEELIRKAQEQQEKNEAALR-NH2
SMILES: CCCCC(=O)N[C@@H](CCC(=O)O)C(=O)N[C@@H](CC(N)=O)C(=O)N[C@@H](Cc1ccc(O)cc1)C(=O)N[C@@H](CC(C)C)C(=O)N[C@@H](C)C(=O)N[C@@H](CC(C)C)C(=O)N[C@H](C(=O)N[C@@H](CCC(=O)O)C(=O)N[C@@H](CCC(=O)O)C(=O)N[C@@H](CC(C)C)C(=O)N[C@H](C(=O)N[C@@H](CCCNC(=N)N)C(=O)N[C@@H](CCCCN)C(=O)N[C@@H](C)C(=O)N[C@@H](CCC(N)=O)C(=O)N[C@@H](CCC(=O)O)C(=O)N[C@@H](CCC(N)=O)C(=O)N[C@@H](CCC(N)=O)C(=O)N[C@@H](CCC(=O)O)C(=O)N[C@@H](CCCCN)C(=O)N[C@@H](CC(N)=O)C(=O)N[C@@H](CCC(=O)O)C(=O)N[C@@H](C)C(=O)N[C@@H](C)C(=O)N[C@@H](CC(C)C)C(=O)N[C@@H](CCCNC(=N)N)C(N)=O)[C@@H](C)CC)[C@@H](C)CC
B2: peptide 50 (peptide)
peptide: Ac-ECYLRCIEALIRAAQEQQEKNEAALR-NH2
modifications: linker 2-6 via pXylylene
SMILES: CC[C@H](C)[C@H](NC(=O)[C@H](CC(C)C)NC(=O)[C@H](C)NC(=O)[C@H](CCC(=O)O)NC(=O)[C@@H](NC(=O)[C@@H]1CSCc2ccc(cc2)CSC[C@H](NC(=O)[C@H](CCC(=O)O)NC(C)=O)C(=O)N[C@@H](Cc2ccc(O)cc2)C(=O)N[C@@H](CC(C)C)C(=O)N[C@@H](CCCNC(=N)N)C(=O)N1)[C@@H](C)CC)C(=O)N[C@@H](CCCNC(=N)N)C(=O)N[C@@H](C)C(=O)N[C@@H](C)C(=O)N[C@@H](CCC(N)=O)C(=O)N[C@@H](CCC(=O)O)C(=O)N[C@@H](CCC(N)=O)C(=O)N[C@@H](CCC(N)=O)C(=O)N[C@@H](CCC(=O)O)C(=O)N[C@@H](CCCCN)C(=O)N[C@@H](CC(N)=O)C(=O)N[C@@H](CCC(=O)O)C(=O)N[C@@H](C)C(=O)N[C@@H](C)C(=O)N[C@@H](CC(C)C)C(=O)N[C@@H](CCCNC(=N)N)C(N)=O
B3: peptide 1 (peptide)
peptide: Suc-ANYLALIEALIRAAQEQQEKNEAAL-NH2
SMILES: CC[C@H](C)[C@H](NC(=O)[C@H](CC(C)C)NC(=O)[C@H](C)NC(=O)[C@H](CCC(=O)O)NC(=O)[C@@H](NC(=O)[C@H](CC(C)C)NC(=O)[C@H](C)NC(=O)[C@H](CC(C)C)NC(=O)[C@H](Cc1ccc(O)cc1)NC(=O)[C@H](CC(N)=O)NC(=O)[C@H](C)NC(=O)CCC(=O)O)[C@@H](C)CC)C(=O)N[C@@H](CCCNC(=N)N)C(=O)N[C@@H](C)C(=O)N[C@@H](C)C(=O)N[C@@H](CCC(N)=O)C(=O)N[C@@H](CCC(=O)O)C(=O)N[C@@H](CCC(N)=O)C(=O)N[C@@H](CCC(N)=O)C(=O)N[C@@H](CCC(=O)O)C(=O)N[C@@H](CCCCN)C(=O)N[C@@H](CC(N)=O)C(=O)N[C@@H](CCC(=O)O)C(=O)N[C@@H](C)C(=O)N[C@@H](C)C(=O)N[C@@H](CC(C)C)C(N)=O
B4: peptide 56 (peptide)
peptide: Ac-ACYLACIEALIRAAQEQQEKNEAALR-NH2
modifications: linker 2-6 via pXylylene
SMILES: CC[C@H](C)[C@H](NC(=O)[C@H](CC(C)C)NC(=O)[C@H](C)NC(=O)[C@H](CCC(=O)O)NC(=O)[C@@H](NC(=O)[C@@H]1CSCc2ccc(cc2)CSC[C@H](NC(=O)[C@H](C)NC(C)=O)C(=O)N[C@@H](Cc2ccc(O)cc2)C(=O)N[C@@H](CC(C)C)C(=O)N[C@@H](C)C(=O)N1)[C@@H](C)CC)C(=O)N[C@@H](CCCNC(=N)N)C(=O)N[C@@H](C)C(=O)N[C@@H](C)C(=O)N[C@@H](CCC(N)=O)C(=O)N[C@@H](CCC(=O)O)C(=O)N[C@@H](CCC(N)=O)C(=O)N[C@@H](CCC(N)=O)C(=O)N[C@@H](CCC(=O)O)C(=O)N[C@@H](CCCCN)C(=O)N[C@@H](CC(N)=O)C(=O)N[C@@H](CCC(=O)O)C(=O)N[C@@H](C)C(=O)N[C@@H](C)C(=O)N[C@@H](CC(C)C)C(=O)N[C@@H](CCCNC(=N)N)C(N)=O
B5: peptide 53 (peptide)
peptide: Ac-ECYAACIEELIRKAQEQQEKNEAALR-NH2
modifications: linker 2-6 via pXylylene
SMILES: CC[C@H](C)[C@H](NC(=O)[C@@H]1CSCc2ccc(cc2)CSC[C@H](NC(=O)[C@H](CCC(=O)O)NC(C)=O)C(=O)N[C@@H](Cc2ccc(O)cc2)C(=O)N[C@@H](C)C(=O)N[C@@H](C)C(=O)N1)C(=O)N[C@@H](CCC(=O)O)C(=O)N[C@@H](CCC(=O)O)C(=O)N[C@@H](CC(C)C)C(=O)N[C@H](C(=O)N[C@@H](CCCNC(=N)N)C(=O)N[C@@H](CCCCN)C(=O)N[C@@H](C)C(=O)N[C@@H](CCC(N)=O)C(=O)N[C@@H](CCC(=O)O)C(=O)N[C@@H](CCC(N)=O)C(=O)N[C@@H](CCC(N)=O)C(=O)N[C@@H](CCC(=O)O)C(=O)N[C@@H](CCCCN)C(=O)N[C@@H](CC(N)=O)C(=O)N[C@@H](CCC(=O)O)C(=O)N[C@@H](C)C(=O)N[C@@H](C)C(=O)N[C@@H](CC(C)C)C(=O)N[C@@H](CCCNC(=N)N)C(N)=O)[C@@H](C)CC
B6: peptide 54 (peptide)
peptide: Ac-ACYLACIEALIRAAQEQQEKNEAALL-NH2
modifications: linker 2-6 via pXylylene
SMILES: CC[C@H](C)[C@H](NC(=O)[C@H](CC(C)C)NC(=O)[C@H](C)NC(=O)[C@H](CCC(=O)O)NC(=O)[C@@H](NC(=O)[C@@H]1CSCc2ccc(cc2)CSC[C@H](NC(=O)[C@H](C)NC(C)=O)C(=O)N[C@@H](Cc2ccc(O)cc2)C(=O)N[C@@H](CC(C)C)C(=O)N[C@@H](C)C(=O)N1)[C@@H](C)CC)C(=O)N[C@@H](CCCNC(=N)N)C(=O)N[C@@H](C)C(=O)N[C@@H](C)C(=O)N[C@@H](CCC(N)=O)C(=O)N[C@@H](CCC(=O)O)C(=O)N[C@@H](CCC(N)=O)C(=O)N[C@@H](CCC(N)=O)C(=O)N[C@@H](CCC(=O)O)C(=O)N[C@@H](CCCCN)C(=O)N[C@@H](CC(N)=O)C(=O)N[C@@H](CCC(=O)O)C(=O)N[C@@H](C)C(=O)N[C@@H](C)C(=O)N[C@@H](CC(C)C)C(=O)N[C@@H](CC(C)C)C(N)=O
B7: peptide 55 (peptide)
peptide: Suc-ENYLRLIEELIRKAQEQQEKNEAALRGSGK(Palmitoyl)-NH2
SMILES: CCCCCCCCCCCCCCCC(=O)NCCCC[C@H](NC(=O)CNC(=O)[C@H](CO)NC(=O)CNC(=O)[C@H](CCCNC(=N)N)NC(=O)[C@H](CC(C)C)NC(=O)[C@H](C)NC(=O)[C@H](C)NC(=O)[C@H](CCC(=O)O)NC(=O)[C@H](CC(N)=O)NC(=O)[C@H](CCCCN)NC(=O)[C@H](CCC(=O)O)NC(=O)[C@H](CCC(N)=O)NC(=O)[C@H](CCC(N)=O)NC(=O)[C@H](CCC(=O)O)NC(=O)[C@H](CCC(N)=O)NC(=O)[C@H](C)NC(=O)[C@H](CCCCN)NC(=O)[C@H](CCCNC(=N)N)NC(=O)[C@@H](NC(=O)[C@H](CC(C)C)NC(=O)[C@H](CCC(=O)O)NC(=O)[C@H](CCC(=O)O)NC(=O)[C@@H](NC(=O)[C@H](CC(C)C)NC(=O)[C@H](CCCNC(=N)N)NC(=O)[C@H](CC(C)C)NC(=O)[C@H](Cc1ccc(O)cc1)NC(=O)[C@H](CC(N)=O)NC(=O)[C@H](CCC(=O)O)NC(=O)CCC(=O)O)[C@@H](C)CC)[C@@H](C)CC)C(N)=O
B8: peptide 51 (peptide)
peptide: Ac-ACYLACIEALIRRAQEQQEKNEAALR-NH2
modifications: linker 2-6 via pXylylene
SMILES: CC[C@H](C)[C@H](NC(=O)[C@@H]1CSCc2ccc(cc2)CSC[C@H](NC(=O)[C@H](C)NC(C)=O)C(=O)N[C@@H](Cc2ccc(O)cc2)C(=O)N[C@@H](CC(C)C)C(=O)N[C@@H](C)C(=O)N1)C(=O)N[C@@H](CCC(=O)O)C(=O)N[C@@H](C)C(=O)N[C@@H](CC(C)C)C(=O)N[C@H](C(=O)N[C@@H](CCCNC(=N)N)C(=O)N[C@@H](CCCNC(=N)N)C(=O)N[C@@H](C)C(=O)N[C@@H](CCC(N)=O)C(=O)N[C@@H](CCC(=O)O)C(=O)N[C@@H](CCC(N)=O)C(=O)N[C@@H](CCC(N)=O)C(=O)N[C@@H](CCC(=O)O)C(=O)N[C@@H](CCCCN)C(=O)N[C@@H](CC(N)=O)C(=O)N[C@@H](CCC(=O)O)C(=O)N[C@@H](C)C(=O)N[C@@H](C)C(=O)N[C@@H](CC(C)C)C(=O)N[C@@H](CCCNC(=N)N)C(N)=O)[C@@H](C)CC

What follows are binders tested against gp41 of HIV-1 strain HXB2D with mutation V38A (HIV-1 strain HXB2D, UniProt P04578) (assay: cell-based or functional assay).

| Binder | fold change in EC50, HIV-HXB2D V38A mutant [fold] |
| --- | --- |
| Suc-ACY[Abu]ACIEALIRAAQEQQEKNEAALR-NH2 (linker 2-6 via B1; reading uncertain) [peptide 49] | 33 |
| B1 | 5 |
| B2 | 12 |
| Ac-ACYLACIEALIRKAQEQQEKNEAALR-NH2 (linker 2-6 via B1; reading uncertain) [peptide 48] | 10 |
| Suc-ACYLACIEALIRA[Abu]QEQQEKNEAALR-NH2 (linker 2-6 via B1; reading uncertain) [peptide 47] | 17 |
| B3 | 57 |
| B4 | 61 |
| B5 | 34 |
| B6 | 31 |
| B7 | 1 |
| Ac-ANYAALIEALIRAAQEQQEKNEAALR-NH2 [peptide 2] | 61 |
| B8 | 10 |
